Measurements as given in patent publication US20060165682A1 (Janssen / Centocor, published 2006).

What was measured:
Assay in all cases: epitope map assay, OD on overlapping 10-mer peptides
[1] = target: T1, GYEVHHQKLV
T1 construct: Aβ 9-18
T1 peptide: GYEVHHQKLV

[2] = target: T2, KLVFFAEDVG
T2 construct: Aβ 16-25
T2 peptide: KLVFFAEDVG

[3] = target: T3, HDSGYEVHHQ
T3 construct: Aβ 6-15
T3 peptide: HDSGYEVHHQ

[4] = target: T4, VFFAEDVGSN
T4 construct: Aβ 18-27
T4 peptide: VFFAEDVGSN

[5] = target: T5, SGYEVHHQKL
T5 construct: Aβ 8-17
T5 peptide: SGYEVHHQKL

[6] = target: T6, DAEFRHDSGY
T6 construct: Aβ 1-10
T6 peptide: DAEFRHDSGY

[7] = target: T7, DSGYEVHHQK
T7 construct: Aβ 7-16
T7 peptide: DSGYEVHHQK

[8] = target: T8, MDAEFRHDSG
T8 construct: APP flank + Aβ 1-9
T8 peptide: MDAEFRHDSG

[9] = target: T9, RHDSGYEVHH
T9 construct: Aβ 5-14
T9 peptide: RHDSGYEVHH

[10] = target: T10, GAIIGLMVGG
T10 construct: Aβ 29-38
T10 peptide: GAIIGLMVGG

[11] = target: T11, EDVGSNKGAI
T11 construct: Aβ 22-31
T11 peptide: EDVGSNKGAI

[12] = target: T12, EISEVKMDAE
T12 construct: APP flank + Aβ 1-3
T12 peptide: EISEVKMDAE

[13] = target: T13, EFRHDSGYEV
T13 construct: Aβ 3-12
T13 peptide: EFRHDSGYEV

[14] = target: T14, HHQKLVFFAE
T14 construct: Aβ 13-22
T14 peptide: HHQKLVFFAE

[15] = target: T15, LMVGGVVIAT
T15 construct: Aβ 34-43
T15 peptide: LMVGGVVIAT

[16] = target: T16, FRHDSGYEVH
T16 construct: Aβ 4-13
T16 peptide: FRHDSGYEVH

[17] = target: T17, FAEDVGSNKG
T17 construct: Aβ 20-29
T17 peptide: FAEDVGSNKG

[18] = target: T18, FFAEDVGSNK
T18 construct: Aβ 19-28
T18 peptide: FFAEDVGSNK

[19] = target: T19, KMDAEFRHDS
T19 construct: APP flank + Aβ 1-8
T19 peptide: KMDAEFRHDS

[20] = target: T20, SNKGAIIGLM
T20 construct: Aβ 26-35
T20 peptide: SNKGAIIGLM

[21] = target: T21, IGLMVGGVVI
T21 construct: Aβ 32-41
T21 peptide: IGLMVGGVVI

[22] = target: T22, DVGSNKGAII
T22 construct: Aβ 23-32
T22 peptide: DVGSNKGAII

[23] = target: T23, ISEVKMDAEF
T23 construct: APP flank + Aβ 1-4
T23 peptide: ISEVKMDAEF

[24] = target: T24, AEFRHDSGYE
T24 construct: Aβ 2-11
T24 peptide: AEFRHDSGYE

[25] = target: T25, HQKLVFFAED
T25 construct: Aβ 14-23
T25 peptide: HQKLVFFAED

[26] = target: T26, EEISEVKMDA
T26 construct: APP flank + Aβ 1-2
T26 peptide: EEISEVKMDA

[27] = target: T27, SEVKMDAEFR
T27 construct: APP flank + Aβ 1-5
T27 peptide: SEVKMDAEFR

[28] = target: T28, IIGLMVGGVV
T28 construct: Aβ 31-40
T28 peptide: IIGLMVGGVV

[29] = target: T29, EVHHQKLVFF
T29 construct: Aβ 11-20
T29 peptide: EVHHQKLVFF

[30] = target: T30, VKMDAEFRHD
T30 construct: APP flank + Aβ 1-7
T30 peptide: VKMDAEFRHD

[31] = target: T31, QKLVFFAEDV
T31 construct: Aβ 15-24
T31 peptide: QKLVFFAEDV

[32] = target: T32, MVGGVVIATV
T32 construct: Aβ 35-43 + one further APP residue
T32 peptide: MVGGVVIATV

[33] = target: T33, KGAIIGLMVG
T33 construct: Aβ 28-37
T33 peptide: KGAIIGLMVG

[34] = target: T34, GLMVGGVVIA
T34 construct: Aβ 33-42
T34 peptide: GLMVGGVVIA

[35] = target: T35, EVKMDAEFRH
T35 construct: APP flank + Aβ 1-6
T35 peptide: EVKMDAEFRH

[36] = target: T36, NKGAIIGLMV
T36 construct: Aβ 27-36
T36 peptide: NKGAIIGLMV

[37] = target: T37, LVFFAEDVGS
T37 construct: Aβ 17-26
T37 peptide: LVFFAEDVGS

[38] = target: T38, VGSNKGAIIG
T38 construct: Aβ 24-33; this label stands at two neighbouring bars
T38 peptide: VGSNKGAIIG

[39] = target: T39, AIIGLMVGGV
T39 construct: Aβ 30-39
T39 peptide: AIIGLMVGGV

[40] = target: T40, GSNKGAIIGL
T40 construct: Aβ 25-34
T40 peptide: GSNKGAIIGL

[41] = target: T41, AEDVGSNKGA
T41 construct: Aβ 21-30
T41 peptide: AEDVGSNKGA

[42] = target: T42, YEVHHQKLVF
T42 construct: Aβ 10-19
T42 peptide: YEVHHQKLVF

Measured: binding result

B1: mouse 15C11 antibody (antibody, V domains shown)
VH: EVKLVESGGGLVQPGGSLKLSCAASGFTFSRYSMSWVRQTPEKRLELVAKISNSGDNTYYPDTLKGRFTISRDNAQNTLYLQMSSLKSEDTAMYYCASGDYWGQGTTLTVSS
VL: DVVMTQTPLSLPVSLGDQASISCRSSQSLVHSDGNTYLHWYLQKPGQSPKLLIYKVSNRFSGVPDRFSGSGSGTDFTLKISRVEAEDLGVYFCSQSTHVWTFGGGTKLEIK
notes: Mouse monoclonal antibody from a hybridoma; The claims number the mature chains 1-111 and 1-112; also called mouse antibody 15C11
binds: [2] | [4] | [14] | [18] | [25] | [31] | [37]
no binding: all other assays above
